Target: T1, AlkG (rubredoxin-2) (Pseudomonas putida, UniProt Q9WWW4)
T1 chain: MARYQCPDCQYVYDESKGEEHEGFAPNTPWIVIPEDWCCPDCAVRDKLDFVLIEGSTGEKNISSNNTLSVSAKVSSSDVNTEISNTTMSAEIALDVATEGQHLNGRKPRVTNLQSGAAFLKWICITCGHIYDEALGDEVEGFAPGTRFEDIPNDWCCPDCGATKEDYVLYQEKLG
Test: electrochemical activity titration on AlkG-immobilized screen-printed carbon electrode (one-site and two-site binding model fits)

B1: AlkB (protein)
chain: MNGKSSVLDSAPEYVDKKKYFWILSTFWPATPMIGIWLANETGWGIFYGLVLAVWYGVLPLLDAMFGEDFNNPPEEVVEKLEKERYYRVLTYLTVPMHYAALIVSAWWVGTQSMSWFEIVALALSLGIVNGLALNTGHELGHKKEAFDRWMAKIVLAVVGYGHFFIEHNKGHHRDVATPMDPATSRMGENIYKFSTREIPGAFRRAWGLEEQRLSRRGQSVWSFDNEILQPMVITVVLYTLLLAFFGPKMLVFLPIQMAFGWWQLTSANYIEHYGLLREKMADGRYEHQKPHHSWNSNHIVSNLVLFHLQRHSDHHAHPTRSYQSLRDFPGLPALPTGYPGAFLMAMIPQWFRSVMDPKVVNWANGDLSKIQIEDSMRAEYIKKFTHNVGADDKRGATAVAS
How did the Kd turn out when B1 was run?
The Kd was 268 µM.

From article PMC5566439 (2017)
